According to patent US20080161234A1, “Composition Comprising Lactic Acid and Lactoferrin” (priority 2004, published 2008):

Experiments:
Type in all cases: cell-based
[1] = tested on: S. aureus 1800 (CCUG 1800); assay: Microbicidal microplate-droplet assay, S. aureus; parameters: key to S. aureus killing, growth grade in droplet assay: +++ = the number of colony forming units contained within 5 ul of a droplet formed a smooth layer of bacteria.; (+++): (parenthesis = a tendency towards a ruffled area compared with the control).; 0 = no bacteria in triplicate samples of 5 ul (>99.95 killed of the inoculum)
Procedure: The bacterial strains S. aureus 1800 (CCUG 1800), E. coli 06, and the yeast C. albicans (ATCC 64549) have been used in the microplate assay. All microorganisms were cultured in brain heart infusion medium (BHI) on a shaker over night at 37° C. A volume of the culture was transferred to a new tube with BHI and incubated for two more h on the shaker. The bacteria were harvested in the log phase, washed once and thereafter suspended in the broth used for the microplate assay. The suspension was adjusted spectrophotometrically and diluted to a concentration of approximately 4×10^6 cells per ml at 650 nm. Washed cells were suspended in 0.2% BP (pH 7.0) or BHI medium diluted 1/10 (0.34%, pH 6.7-6.9) (Difco, USA). The concentration of bacterial or fungal cells was spectrophotometrically adjusted. LF or peptide, serially diluted in BHIdil or BP by twofold steps (unless otherwise stated), were added in triplicate to the wells of a microtiterplate (200 ul per well). The bacterial or yeast cell solutions were added in 10 ul volumes to give a final concentration of approximately 2×10^5 cells per ml. The concentration of the stock solution was always checked by viable counts. The microplate was incubated at 37° C. in a humid chamber for 2 h unless otherwise stated. Five ul were taken from each well and added as a drop onto a blood agar plate and incubated over night at 37° C. In some experiments more thorough viable counts were performed and the killing was expressed as remaining colony forming units in relation to the inoculum. The lower limit for detection of microorganisms was 200 CFU/ml. The antimicrobial activity of human LF was analysed by the microbicidal assay described above. Different microbes such as C. albicans, E. coli and S. aureus were analysed with respect to their survival in lactate (not containing the inert gel base, which makes the gel unsuitable for the microbicidal assay) containing LF.

L. gasseri = assay: Survival of L. gasseri in lactate with LF; settings: LF 2 mg/ml, lactate 1%, 0.34% BHI, CO2, 3 h
Procedure: L. gasseri and L. jensenii were cultured on chocolate-agar plates for 24 h in 5% CO2/95% air. They were thereafter harvested and added to BHI (0.34%). After washing the bacterial solutions were adjusted spectrophotometrically and diluted to 8×10^6 bacteria/ml.
Washed cells were suspended in 0.2% BP (pH 7.0) or BHI medium diluted 1/10 (0.34%, pH 6.7-6.9) (Difco, USA). The concentration of bacterial or fungal cells was spectrophotometrically adjusted. LF or peptide, serially diluted in BHIdil or BP by twofold steps (unless otherwise stated), were added in triplicate to the wells of a microtiterplate (200 ul per well). The bacterial or yeast cell solutions were added in 10 ul volumes to give a final concentration of approximately 2×10^5 cells per ml. The concentration of the stock solution was always checked by viable counts. The microplate was incubated at 37° C. in a humid chamber for 2 h unless otherwise stated. Five ul were taken from each well and added as a drop onto a blood agar plate and incubated over night at 37° C. In some experiments more thorough viable counts were performed and the killing was expressed as remaining colony forming units in relation to the inoculum. The lower limit for detection of microorganisms was 200 CFU/ml.
L. gasseri survived better in the assay system than did L. jensenii. Undiluted lactate (5%) affected the survival of Lactobacillus.

G. vaginalis (Gv 14) = assay: Growth inhibition of G. vaginalis by LF, spectrophotometric, 20 h anaerobic; settings: LF in various concentrations, no lactate, 0.34% BHI
Procedure: (§1) The bacteria were incubated in 0.34% BHI under anaerobic conditions for 20 hours.
(§2) G. vaginalis and P. bivia were cultured on chocolate-GL-plates for 48 h in anaerobic milieu. The bacteria were harvested and suspended in BHI for further incubation (4 hours at 37° C.). The bacteria were washed twice in Bactopeptone (BP, 0.2%). The concentration was adjusted spectrophotometrically and diluted to 1×10^7 bacteria per ml.
(§3) The procedure for the microbicidal assay with regard to G. vaginalis and P. bivia was as described above except that the microplate was incubated under anaerobic conditions (2 h). Thereafter droplets of the solutions were analyzed for viable bacteria on blood agar plates after 48 h of anaerobic incubation at 37° C.
(§4) The microbicidal assay was modified in order to obtain survival conditions for G. vaginalis and P. bivia. Instead of 0.2% BP 0.34% BHI was used. The bacterial strains were analyzed with only LF added in various concentrations to the wells (no lactate present). The plate was incubated for 20 hours.

[2] = tested on: P. bivia strains (Pb 57, Pb 62); assay: Growth inhibition of P. bivia by LF, spectrophotometric, 20 h anaerobic; settings: LF in various concentrations, no lactate, 0.34% BHI
Procedure: as §1, §2, §3, §4

G. vaginalis = assay: Minimal bactericidal concentration (MBC99) of LF on G. vaginalis strains; settings: concentration at which 99% killing was obtained, fivefold serial steps
Procedure: as §2, §3
Instead of 0.2% BP 0.34% BHI was used. […] The plate was incubated for 20 hours.

B1: LF: LF from human milk purchased from Sigma; single chain iron-binding glycoprotein (protein, UniProt P02788 20-710, looked up)
Lactotransferrin: GRRRSVQWCAVSQPEATKCFQWQRNMRKVRGPPVSCIKRDSPIQCIQAIAENRADAVTLDGGFIYEAGLAPYKLRPVAAEVYGTERQPRTHYYAVAVVKKGGSFQLNELQGLKSCHTGLRRTAGWNVPIGTLRPFLNWTGPPEPIEAAVARFFSASCVPGADKGQFPNLCRLCAGTGENKCAFSSQEPYFSYSGAFKCLRDGAGDVAFIRESTVFEDLSDEAERDEYELLCPDNTRKPVDKFKDCHLARVPSHAVVARSVNGKEDAIWNLLRQAQEKFGKDKSPKFQLFGSPSGQKDLLFKDSAIGFSRVPPRIDSGLYLGSGYFTAIQNLRKSEEEVAARRARVVWCAVGEQELRKCNQWSGLSEGSVTCSSASTTEDCIALVLKGEADAMSLDGGYVYTAGKCGLVPVLAENYKSQQSSDPDPNCVDRPVEGYLAVAVVRRSDTSLTWNSVKGKKSCHTAVDRTAGWNIPMGLLFNQTGSCKFDEYFSQSCAPGSDPRSNLCALCIGDEQGENKCVPNSNERYYGYTGAFRCLAENAGDVAFVKDVTVLQNTDGNNNEAWAKDLKLADFALLCLDGKRKPVTEARSCHLAMAPNHAVVSRMDKVERLKQVLLHQQAKFGRNGSDCPDKFCLFQSETKNLLFNDNTECLARLHGKTTYEKYLGPQYVAGITNLKKCSTSPLLEACEFLRK
- S. aureus killing, percentage of bacteria remaining in relation to the inoculum ([1]; HLF 500 ug/ml, lactate 0.2%, 2 h incubation): 0 (0 = no bacteria in triplicate samples of 5 ul (>99.95 killed of the inoculum).)
- S. aureus killing, percentage of bacteria remaining in relation to the inoculum ([1]; HLF 500 ug/ml, lactate 0.2%, 5 h incubation): 0 (0 = no bacteria in triplicate samples of 5 ul (>99.95 killed of the inoculum).)
- S. aureus killing, percentage of bacteria remaining in relation to the inoculum ([1]; HLF 500 ug/ml, lactate 1%, 2 h incubation): 0 (0 = no bacteria in triplicate samples of 5 ul (>99.95 killed of the inoculum).)
- S. aureus killing, percentage of bacteria remaining in relation to the inoculum ([1]; HLF 500 ug/ml, lactate 1%, 5 h incubation): 0 (0 = no bacteria in triplicate samples of 5 ul (>99.95 killed of the inoculum).)
- S. aureus killing, percentage of bacteria remaining in relation to the inoculum ([1]; HLF 500 ug/ml, lactate 5%, 2 h incubation): 0 (0 = no bacteria in triplicate samples of 5 ul (>99.95 killed of the inoculum).)
- S. aureus killing, percentage of bacteria remaining in relation to the inoculum ([1]; HLF 500 ug/ml, lactate 5%, 5 h incubation): 0 (0 = no bacteria in triplicate samples of 5 ul (>99.95 killed of the inoculum).)
- S. aureus killing, growth grade in droplet assay ([1]; HLF 500 ug/ml, no lactal, 2 h incubation): (+++)
- S. aureus killing, percentage of bacteria remaining in relation to the inoculum ([1]; HLF 500 ug/ml, no lactal, 5 h incubation): 0.3%
- microbicidal activity against S. aureus, LF compared with rHLF ([1]; without lactate, 0.25 and 0.125 mg/ml, 2 h of incubation): somewhat more active
- survival of L. gasseri (L. gasseri): 18%
- growth inhibition of G. vaginalis (G. vaginalis (Gv 14)): Growth inhibition
- growth inhibition of P. bivia [2]: Growth inhibition
- MBC99 (G. vaginalis; G. vaginalis strain code 12): 500 µg/mL
- MBC99 (G. vaginalis; G. vaginalis strain code 17): >2500 µg/mL
- MBC99 (G. vaginalis; G. vaginalis strain code 23): 1000 µg/mL
- MBC99 (G. vaginalis; G. vaginalis strain code 51): 100 µg/mL
- MBC99 (G. vaginalis; G. vaginalis strain code 90): 4 µg/mL
- MBC99 (G. vaginalis; G. vaginalis strain code 96): 100 to 500 µg/mL
